Source: article doi:10.1101/2022.01.13.476167v2

Experiments:
[1] = substrate: CCCCCC(=O)N[C@H]1CCOC1=O; assay: purified protein; conditions: 0.05 M phosphate buffer, pH 7.0, 35 °C
[2] = substrate: CCCCCCCC(=O)N[C@H]1CCOC1=O; assay: purified protein; conditions: 0.05 M phosphate buffer, pH 7.0, 35 °C

B1: ecPGA (Escherichia coli penicillin G acylase) (Escherichia coli) (protein)
chain 1: EQSSSEIKIVRDEYGMPHIYANDTWHLFYGYGYVVAQDRLFQMEMARRSTQGTVAEVLGKDFVKFDKDIRRNYWPDAIRAQIAALSPEDMSILQGYADGMNAWIDKVNTNPETLLPKQFNTFGFTPKRWEPFDVAMIFVGTMANRFSDSTSEIDNLALLTALKDKYGVSQGMAVFNQLKWLVNPSAPTTIAVQESNYPLKFNQQNSQTA
chain 2: SNMWVIGKSKAQDAKAIMVNGPQFGWYAPAYTYGIGLHGAGYDVTGNTPFAYPGLVFGHNGVISWGSTAGFGDDVDIFAERLSAEKPGYYLHNGKWVKMLSREETITVKNGQAETFTVWRTVHGNILQTDQTTQTAYAKSRAWDGKEVASLLAWTHQMKAKNWQEWTQQAAKQALTINWYYADVNGNIGYVHTGAYPDRQSGHDPRLPVPGTGKWDWKGLLPFEMNPKVYNPQSGYIANWNNSPQKDYPASDLFAFLWGGADRVTEIDRLLEQKPRLTADQAWDVIRQTSRQDLNLRLFLPTLQAATSGLTQSDPRRQLVETLTRWDGINLLNDDGKTWQQPGSAILNVWLTSMLKRTVVAAVPMPFDKWYSASGYETTQDGPTGSLNISVGAKILYEAVQGDKSPIPQAVDLFAGKPQQEVVLAALEDTWETLSKRYGNNVSNWKTPAMALTFRANNFFGVPQAAAEETRHQAEYQNRGTENDMIVFSPTTSDRPVLAWDVVAPGQSGFIAPDGTVDKHYEDQLKMYENFGRKSLWLTKQDVEAHKESQEVLHVQR
[1]
  Km: 590 ± 70 µM
  kcat: 0.0090 ± 0.0003 s⁻¹
[2]
  Km: 700 ± 40 µM
  kcat: 0.0085 ± 0.0003 s⁻¹
